In US20260265373A1 (INMAGENE PTE, published 2026):
Each block holds one binder with its values, some of them ahead of it.

Experiments:
[1] = molecular target: T1, full-length cynomolgus ILT7 on cells (cynomolgus, UniProt P59901 24-499 (human entry)); test: flow cytometry on CHOK1-cynomolgus ILT7 cells, MFI
T1 construct: also called CHOK1-cynomolgus ILT7 cells

[2] = molecular target: T2, full-length human ILT7 on cells (human, UniProt P59901 24-499); test: flow cytometry on 293F-human ILT7 cells, MFI
T2 construct: also called CHOK1 cells expressing human ILT7

[3] = molecular target: T2, full-length human ILT7 on cells; test: flow cytometry on 293F-human ILT7 cells, MFI; remark: listed apart in the source
[4] = molecular target: T2, full-length human ILT7 on cells; test: cell-based or functional assay
[5] = molecular target: T1, full-length cynomolgus ILT7 on cells; test: flow cytometry on CHOK1-cynomolgus ILT7 cells, MFI; remark: listed apart in the source
human ILT7-his protein [6] = molecular target: T3, human ILT7-his protein (human, UniProt P59901 28-446); test: ELISA, plate coated with human ILT7-his, antibody titrated, OD450
T3 construct: also called human ILT7 protein

human ILT7-his protein [7] = molecular target: T3, human ILT7-his protein; test: ELISA, OD450; the x axis is labelled 'human ILT7 Conc (µg/ml)'
human ILT7-his protein [8] = molecular target: T3, human ILT7-his protein; test: SPR (Biacore 8K), antibody captured through Fc, human ILT7-his as analyte, 25 C
Excerpt: (§1) Methods: The binding affinity of the humanized cmAb12 antibody, hu-cmAb12, was further measured by surface plasmon resonance (SPR) technology with Biacore 8K. As used herein, “hu-cmAb12” refers to a specific antibody clone variant of the Hu12-04 antibody of Examples 8 and 9. The hu-cmAb12 antibody includes a VL having the amino acid sequence of SEQ ID NO: 19, a VH having the amino acid sequence of SEQ ID NO: 26, and a CH having the amino acid sequence of SEQ ID NO: 55. hu-cmAb12 or Tab1 were immobilized on CM-5 chip. The assay was performed at 25° C. and the running buffer was 1×HEPES (10 mM HEPES, 150 mM NaCl, 3 mM EDTA) with 0.005% Tween-20, pH 7.4. Diluted antibodies were captured on the sensor chip through Fc capture method. Human ILT7-his was used as the analyte, and running buffer was used as the dissociation phase. Similarly, ELISA was conducted as described above. An isotype control antibody and reference anti-ILT7 antibody Tab1 were used as controls.

human ILT7-his protein [9] = molecular target: T3, human ILT7-his protein; test: ELISA, plate coated with human ILT7-his
Protocol: Methods: The binding of the chimeric anti-ILT7 antibodies identified from the screening, including cmAb12, to human ILT7-his protein was measured by ELISA, along with an isotype antibody hIgG1 as negative control and a reference anti-ILT7 antibody Tab1. 96-well ELISA plates were coated with human ILT7-his in PBS (2 μg/ml) overnight at 4° C. Chimeric antibodies were added to the wells and co-incubated with the coating protein at 37° C. for 1 hour, followed by the addition of secondary HRP labelled antibody. After incubation at 37° C. for 1 more hour, TMB substrate was added to wells and incubated at RT for 15 min. 1 N HCl was added to terminate the reactions. The absorbance at 450 nm was measured with a microplate reader.
Methods: The binding affinity of the humanized cmAb12 antibody, hu-cmAb12, was further measured by surface plasmon resonance (SPR) technology with Biacore 8K. As used herein, “hu-cmAb12” refers to a specific antibody clone variant of the Hu12-04 antibody of Examples 8 and 9. The hu-cmAb12 antibody includes a VL having the amino acid sequence of SEQ ID NO: 19, a VH having the amino acid sequence of SEQ ID NO: 26, and a CH having the amino acid sequence of SEQ ID NO: 55. hu-cmAb12 or Tab1 were immobilized on CM-5 chip. The assay was performed at 25° C. and the running buffer was 1×HEPES (10 mM HEPES, 150 mM NaCl, 3 mM EDTA) with 0.005% Tween-20, pH 7.4. […]

[10] = molecular target: T2, full-length human ILT7 on cells; test: flow cytometry on 293F-human ILT7 cells
Protocol: (§2) Methods: The binding affinities of chimeric anti-ILT7 antibodies identified from the screening, including cmAb12, to human ILT7 or cynomolgus ILT7 expressed on cell membrane were measured by flow cytometry. Vectors containing coding sequences for full-length cynomolgus ILT7 (SEQ ID NO: 6) and hFcεRiγ (SEQ ID NO: 7) were generated. […] Both cell lines were seeded, resuspended, and incubated with the chimeric antibodies at 4° C. for 1 hour. Cells were then washed with cold FACS buffer (PBS+2% FBS), resuspended, and incubated with secondary antibody at 4° C. for 1 hour. hIgG1 and Tab1 were used as controls.
(§3) Cells were washed with cold FACS buffer (PBS+2% FBS) by centrifuging, followed by addition of secondary antibodies, and incubation at 4° C. for 1 hour. An isotype control antibody and reference anti-ILT7 antibody Tab1 were used as negative and positive controls. The concentration-MFI curves of FACs were then determined.

[11] = molecular target: T1, full-length cynomolgus ILT7 on cells; test: flow cytometry on CHOK1-cynomolgus ILT7 cells
Protocol: as §2, §3

human ILT7-his protein [12] = molecular target: T3, human ILT7-his protein; test: SPR, Biacore 8K, antibody captured on the chip, human ILT7-his as analyte, 25° C.
Excerpt: as §1

LILRA5/ILT11 [13] = molecular target: T4, LILRA5/ILT11 (UniProt A6NI73 42-268, limits assumed); test: ELISA, plate coated with 1 µg/ml LILR protein
Protocol: (§4) Methods: The binding specificities of the chimeric antibodies, including cmAb12, for ILT7 over its related 10 LILR superfamily member proteins were evaluated by ELISA. Plates coated with 1 μg/ml LILR superfamily protein as indicated were incubated with chimeric antibodies at 37° C. for 1 hour, followed by the secondary antibody.

LILB5 [14] = molecular target: T5, LILB5 (UniProt O75023 24-458, limits assumed); test: ELISA, plate coated with 1 µg/ml LILR protein
T5 construct: also called LILRB5 (printed as LILB5)
Protocol: as §4

LILRA1 [15] = molecular target: T6, LILRA1 (UniProt O75019 17-461, limits assumed); test: ELISA, plate coated with 1 µg/ml LILR protein
Protocol: as §4

LILRA2/ILT1 [16] = molecular target: T7, LILRA2/ILT1 (UniProt Q8N149 24-449, limits assumed); test: ELISA, plate coated with 1 µg/ml LILR protein
Protocol: as §4

LILRA3/ILT6 [17] = molecular target: T8, LILRA3/ILT6 (UniProt Q8N6C8 24-439); test: ELISA, plate coated with 1 µg/ml LILR protein
Protocol: as §4

LILRB3/ILT5 [18] = molecular target: T9, LILRB3/ILT5 (UniProt O75022 24-443, limits assumed); test: ELISA, plate coated with 1 µg/ml LILR protein
Protocol: as §4

LILRB4/ILT3 [19] = molecular target: T10, LILRB4/ILT3 (UniProt Q8NHJ6 22-259); test: ELISA, plate coated with 1 µg/ml LILR protein
Protocol: as §4

LILRB1/ILT2 [20] = molecular target: T11, LILRB1/ILT2 (UniProt Q8NHL6 24-461, limits assumed); test: ELISA, plate coated with 1 µg/ml LILR protein
Protocol: as §4

LILRA6/ILT8 [21] = molecular target: T12, LILRA6/ILT8 (UniProt Q6PI73 24-447, limits assumed); test: ELISA, plate coated with 1 µg/ml LILR protein
Protocol: as §4

LILRB2/ILT4 [22] = molecular target: T13, LILRB2/ILT4 (UniProt Q8N423 22-460, limits assumed); test: ELISA, plate coated with 1 µg/ml LILR protein
Protocol: as §4

LILRA5/ILT11 [23] = molecular target: T4, LILRA5/ILT11; test: ELISA, plate coated with 1 µg/ml LILR superfamily protein
Protocol: as §4

LILB5 [24] = molecular target: T5, LILB5; test: as above
Protocol: as §4

LILRA1 [25] = molecular target: T6, LILRA1; test: as above
Protocol: as §4

LILRA2/ILT1 [26] = molecular target: T7, LILRA2/ILT1; test: as above
Protocol: as §4

LILRA3/ILT6 [27] = molecular target: T8, LILRA3/ILT6; test: as above
Protocol: as §4

LILRB3/ILT5 [28] = molecular target: T9, LILRB3/ILT5; test: as above
Protocol: as §4

LILRB4/ILT3 [29] = molecular target: T10, LILRB4/ILT3; test: as above
Protocol: as §4

LILRB1/ILT2 [30] = molecular target: T11, LILRB1/ILT2; test: as above
Protocol: as §4

LILRA6/ILT8 [31] = molecular target: T12, LILRA6/ILT8; test: as above
Protocol: as §4

LILRB2/ILT4 [32] = molecular target: T13, LILRB2/ILT4; test: as above
Protocol: as §4

T1 sequence (P59901 other isoform, or with tags, fused parts or gaps limits assumed): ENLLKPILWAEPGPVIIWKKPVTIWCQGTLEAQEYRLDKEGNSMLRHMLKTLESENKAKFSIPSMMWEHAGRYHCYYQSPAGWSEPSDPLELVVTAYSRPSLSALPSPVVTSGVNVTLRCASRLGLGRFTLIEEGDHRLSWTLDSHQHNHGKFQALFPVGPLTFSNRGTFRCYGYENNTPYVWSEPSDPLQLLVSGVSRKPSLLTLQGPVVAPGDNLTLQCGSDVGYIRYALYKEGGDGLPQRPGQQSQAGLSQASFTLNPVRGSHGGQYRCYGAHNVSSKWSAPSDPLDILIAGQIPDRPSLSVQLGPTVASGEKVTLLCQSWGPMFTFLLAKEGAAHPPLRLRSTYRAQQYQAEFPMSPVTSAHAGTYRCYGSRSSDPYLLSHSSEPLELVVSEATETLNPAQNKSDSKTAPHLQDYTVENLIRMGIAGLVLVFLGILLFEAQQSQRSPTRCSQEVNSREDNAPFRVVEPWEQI
T3 sequence (P59901 other isoform, or with tags, fused parts or gaps): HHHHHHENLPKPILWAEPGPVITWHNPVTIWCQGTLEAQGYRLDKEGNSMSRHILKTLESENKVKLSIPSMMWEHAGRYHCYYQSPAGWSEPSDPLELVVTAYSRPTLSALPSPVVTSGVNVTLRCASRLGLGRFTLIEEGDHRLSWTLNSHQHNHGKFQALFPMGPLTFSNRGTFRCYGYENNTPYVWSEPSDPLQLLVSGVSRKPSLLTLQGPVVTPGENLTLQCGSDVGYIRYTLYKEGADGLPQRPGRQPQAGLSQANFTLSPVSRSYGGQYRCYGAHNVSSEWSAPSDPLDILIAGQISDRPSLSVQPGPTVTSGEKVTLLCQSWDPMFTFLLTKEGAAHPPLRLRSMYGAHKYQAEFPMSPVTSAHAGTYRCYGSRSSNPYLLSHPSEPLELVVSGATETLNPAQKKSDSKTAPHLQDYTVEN
T2 sequence (P59901 other isoform, or with tags, fused parts or gaps): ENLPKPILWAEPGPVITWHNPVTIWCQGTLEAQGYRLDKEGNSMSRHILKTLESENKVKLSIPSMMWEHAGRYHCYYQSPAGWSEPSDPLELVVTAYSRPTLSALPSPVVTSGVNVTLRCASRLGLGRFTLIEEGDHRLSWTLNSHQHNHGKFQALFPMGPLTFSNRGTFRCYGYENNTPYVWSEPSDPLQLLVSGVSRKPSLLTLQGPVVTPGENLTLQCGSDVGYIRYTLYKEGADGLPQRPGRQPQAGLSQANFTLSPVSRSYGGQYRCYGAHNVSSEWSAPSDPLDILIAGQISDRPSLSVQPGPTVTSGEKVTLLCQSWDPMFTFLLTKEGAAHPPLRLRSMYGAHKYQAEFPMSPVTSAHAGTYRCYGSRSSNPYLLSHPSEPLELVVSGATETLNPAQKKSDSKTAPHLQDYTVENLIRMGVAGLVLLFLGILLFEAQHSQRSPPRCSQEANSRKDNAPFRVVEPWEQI
T6 sequence (O75019 17-461 limits assumed): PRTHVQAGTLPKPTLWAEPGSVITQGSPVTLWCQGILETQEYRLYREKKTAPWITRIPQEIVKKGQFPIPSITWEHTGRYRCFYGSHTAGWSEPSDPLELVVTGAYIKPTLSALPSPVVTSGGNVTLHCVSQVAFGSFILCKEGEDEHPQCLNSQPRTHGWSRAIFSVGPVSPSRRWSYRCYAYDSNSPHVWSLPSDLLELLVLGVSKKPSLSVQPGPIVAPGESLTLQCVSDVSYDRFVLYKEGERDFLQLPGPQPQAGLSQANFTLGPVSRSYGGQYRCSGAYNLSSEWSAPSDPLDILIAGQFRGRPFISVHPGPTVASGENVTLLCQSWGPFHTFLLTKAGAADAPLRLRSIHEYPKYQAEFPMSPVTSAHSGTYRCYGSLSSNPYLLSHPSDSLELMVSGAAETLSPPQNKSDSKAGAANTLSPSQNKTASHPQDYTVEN
T11 sequence (Q8NHL6 24-461 limits assumed): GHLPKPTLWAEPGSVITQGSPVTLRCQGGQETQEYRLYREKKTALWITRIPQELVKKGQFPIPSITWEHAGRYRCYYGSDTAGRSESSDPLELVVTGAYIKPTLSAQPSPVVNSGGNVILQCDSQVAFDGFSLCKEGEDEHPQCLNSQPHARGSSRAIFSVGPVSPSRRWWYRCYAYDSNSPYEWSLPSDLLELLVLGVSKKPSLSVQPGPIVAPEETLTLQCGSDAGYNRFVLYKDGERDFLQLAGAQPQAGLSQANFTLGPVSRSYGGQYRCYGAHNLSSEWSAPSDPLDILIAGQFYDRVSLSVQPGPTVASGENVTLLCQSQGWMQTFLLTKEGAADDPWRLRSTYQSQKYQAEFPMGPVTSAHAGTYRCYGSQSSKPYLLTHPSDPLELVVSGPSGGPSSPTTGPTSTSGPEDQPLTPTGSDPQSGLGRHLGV
T5 sequence (O75023 24-458 limits assumed): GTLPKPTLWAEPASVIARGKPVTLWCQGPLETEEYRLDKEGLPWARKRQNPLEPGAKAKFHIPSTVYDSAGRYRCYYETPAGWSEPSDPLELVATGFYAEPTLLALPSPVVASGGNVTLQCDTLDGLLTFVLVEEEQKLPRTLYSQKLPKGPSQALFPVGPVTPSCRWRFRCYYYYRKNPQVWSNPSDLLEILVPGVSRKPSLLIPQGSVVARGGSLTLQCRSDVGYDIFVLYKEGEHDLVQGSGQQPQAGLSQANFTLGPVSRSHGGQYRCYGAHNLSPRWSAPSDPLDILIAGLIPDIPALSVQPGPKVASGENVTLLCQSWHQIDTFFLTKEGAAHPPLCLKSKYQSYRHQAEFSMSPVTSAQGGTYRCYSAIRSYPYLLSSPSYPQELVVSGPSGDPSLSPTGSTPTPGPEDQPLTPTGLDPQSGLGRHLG
T4 sequence (A6NI73 42-268 limits assumed): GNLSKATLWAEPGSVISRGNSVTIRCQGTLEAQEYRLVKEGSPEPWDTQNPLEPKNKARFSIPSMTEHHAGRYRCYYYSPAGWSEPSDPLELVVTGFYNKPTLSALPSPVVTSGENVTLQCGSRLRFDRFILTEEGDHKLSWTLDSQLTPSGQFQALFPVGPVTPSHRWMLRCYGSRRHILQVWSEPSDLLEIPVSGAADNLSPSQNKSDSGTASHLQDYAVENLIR
T12 sequence (Q6PI73 24-447 limits assumed): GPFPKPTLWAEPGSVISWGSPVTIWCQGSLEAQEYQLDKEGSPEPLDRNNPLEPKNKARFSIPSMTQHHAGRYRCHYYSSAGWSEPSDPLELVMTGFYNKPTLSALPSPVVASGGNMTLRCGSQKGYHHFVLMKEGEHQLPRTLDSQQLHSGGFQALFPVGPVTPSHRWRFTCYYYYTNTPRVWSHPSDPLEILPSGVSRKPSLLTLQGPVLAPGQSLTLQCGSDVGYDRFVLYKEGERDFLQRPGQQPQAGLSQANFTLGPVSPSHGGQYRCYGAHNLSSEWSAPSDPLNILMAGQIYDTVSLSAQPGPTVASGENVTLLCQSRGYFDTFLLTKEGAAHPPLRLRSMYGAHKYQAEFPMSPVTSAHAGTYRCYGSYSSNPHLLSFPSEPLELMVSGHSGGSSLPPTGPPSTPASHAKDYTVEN
T8 sequence (Q8N6C8 24-439 limits assumed): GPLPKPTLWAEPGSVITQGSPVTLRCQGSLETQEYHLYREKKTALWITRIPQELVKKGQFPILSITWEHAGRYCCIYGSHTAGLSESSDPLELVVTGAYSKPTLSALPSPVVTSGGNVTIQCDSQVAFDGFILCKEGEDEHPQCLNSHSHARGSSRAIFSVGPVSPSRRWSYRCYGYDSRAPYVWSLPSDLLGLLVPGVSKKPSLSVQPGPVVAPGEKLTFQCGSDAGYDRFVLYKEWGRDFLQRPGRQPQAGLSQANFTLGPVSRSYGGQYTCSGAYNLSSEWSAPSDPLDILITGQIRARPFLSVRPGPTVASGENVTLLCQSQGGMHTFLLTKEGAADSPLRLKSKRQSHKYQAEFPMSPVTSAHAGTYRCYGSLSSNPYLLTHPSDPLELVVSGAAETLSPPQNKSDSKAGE
T13 sequence (Q8N423 22-460 limits assumed): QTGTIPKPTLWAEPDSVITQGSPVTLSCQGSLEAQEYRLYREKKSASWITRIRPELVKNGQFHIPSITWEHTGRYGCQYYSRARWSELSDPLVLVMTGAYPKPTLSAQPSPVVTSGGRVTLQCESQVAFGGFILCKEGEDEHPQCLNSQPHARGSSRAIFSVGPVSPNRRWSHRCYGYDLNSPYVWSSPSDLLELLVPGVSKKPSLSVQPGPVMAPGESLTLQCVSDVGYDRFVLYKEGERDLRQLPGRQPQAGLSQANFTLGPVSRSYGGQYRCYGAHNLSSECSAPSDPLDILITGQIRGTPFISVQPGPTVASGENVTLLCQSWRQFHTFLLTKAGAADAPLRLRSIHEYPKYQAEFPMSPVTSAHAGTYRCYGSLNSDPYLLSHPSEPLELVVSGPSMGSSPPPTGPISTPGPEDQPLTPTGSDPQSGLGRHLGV
T9 sequence (O75022 24-443 limits assumed): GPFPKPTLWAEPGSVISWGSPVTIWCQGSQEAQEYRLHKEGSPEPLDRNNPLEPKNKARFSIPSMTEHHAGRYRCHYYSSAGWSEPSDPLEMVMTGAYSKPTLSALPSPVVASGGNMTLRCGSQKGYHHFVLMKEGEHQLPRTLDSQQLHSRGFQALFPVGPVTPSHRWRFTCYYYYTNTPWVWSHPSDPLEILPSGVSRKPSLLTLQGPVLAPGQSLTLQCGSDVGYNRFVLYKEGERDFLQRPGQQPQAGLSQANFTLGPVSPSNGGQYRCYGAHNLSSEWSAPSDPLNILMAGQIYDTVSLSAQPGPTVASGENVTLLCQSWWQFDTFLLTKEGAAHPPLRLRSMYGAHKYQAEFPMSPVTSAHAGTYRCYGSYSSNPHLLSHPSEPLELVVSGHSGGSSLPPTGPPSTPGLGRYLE

EC50 [1]: 1.1 nM | EC50 [2]: 0.579 nM | EC50 [3]: 0.383 nM | EC50 [5]: 2.46 nM | EC50 (human ILT7-his protein [6]): 0.0682 nM | EC50 (human ILT7-his protein [7]): 0.0398 µg/mL | Kd (human ILT7-his protein [8]): 71.3 nM | koff (human ILT7-his protein [8]): 0.0278 s⁻¹ | kon (human ILT7-his protein [8]): 390000 M⁻¹ s⁻¹
B1: benchmark antibody daxdilimab (Tab1) (antibody, V domains shown)
VH: QVQLQQSGAEVKKPGASVKVSCKASGYTFTSYGISWVRQAPGQGLEWMGWISAYNGNTNYAQKLQGRVTMTIDTSTSTAYMELRSLRSDDTAVYYCARNGLWGWDSDAFDIWGRGTLVTVSS
VL: QSALTQPASVSGSPGQSITISCTGTSSDVGGYNYVSWYQQHPGKAPKLMIYDVSNRPSGVSNRFSGSKSGNTASLTISGLQAEDEADYYCSSYTSSSTVVFGGGTKVTVL
NK-dependent ADCC activity (% Cytotoxicity), EC50 [4]: 10.3 pM

EC50 (human ILT7-his protein [9]): 0.0791 µg/mL | EC50 [10]: 0.343 nM | macrophage-dependent ADCP activity, EC50 (Donor 1) [4]: 0.881 nM | macrophage-dependent ADCP activity, EC50 (Donor 2) [4]: 2.17 nM | macrophage-dependent ADCP activity, EC50 (Donor 3) [4]: 1.58 nM | EC50 [11]: 1.65 nM | koff (human ILT7-his protein [8]): 0.106 s⁻¹ | kon (human ILT7-his protein [8]): 959000 M⁻¹ s⁻¹ | Kd (human ILT7-his protein [12]): 111 nM
B2: humanized antibody hu-cmAb12 (antibody, V domains shown)
VH: QVQLVQSGAEVKKPGASVKVSCKASGYTFTEYPMHWVRQAPGQRLEWMGMIYTDTGEPAYAEEFKGRVTITRDTSASTAYMELSSLRSEDTAVYYCARELGQNFDYWGQGTTVTVSS
VL: DIVLTQSPASLAVSPGQRATITCRASQSVSTSSYSYMHWYQQKPGQPPKLLIYYASNLESGVPARFSGSGSGTDFTLTINPVEAEDTANYYCQHSWDIPYTFGQGTKLEIK
modifications: Example 12: the antibody was conjugated with the dye Alexa488, which the letters do not carry.
notes: also called antibody clone variant of Hu12-04
NK-dependent ADCC activity (% Cytotoxicity), EC50 [4]: 3.8 pM | neutrophil-dependent ADCC activity (% Cytotoxicity), EC50 [4]: 16.1 nM

ELISA OD 450 nM (LILRA5/ILT11 [13]): 0.1 OD450 | ELISA OD 450 nM (LILB5 [14]): 0.1 OD450 | ELISA OD 450 nM (LILRA1 [15]): 0.1 OD450 | ELISA OD 450 nM (LILRA2/ILT1 [16]): 0.2 OD450 | ELISA OD 450 nM (LILRA3/ILT6 [17]): 0.1 OD450 | ELISA OD 450 nM (LILRB3/ILT5 [18]): 0.1 OD450 | ELISA OD 450 nM (LILRB4/ILT3 [19]): 0.1 OD450 | ELISA OD 450 nM (LILRB1/ILT2 [20]): 0.1 OD450 | ELISA OD 450 nM (LILRA6/ILT8 [21]): 0.1 OD450 | ELISA OD 450 nM (LILRB2/ILT4 [22]): 0.3 OD450 | binding result (LILRA5/ILT11 [23]): no binding | binding result (LILB5 [24]): no binding | binding result (LILRA1 [25]): no binding | binding result (LILRA2/ILT1 [26]): no binding | binding result (LILRA3/ILT6 [27]): no binding | binding result (LILRB3/ILT5 [28]): no binding | binding result (LILRB4/ILT3 [29]): no binding | binding result (LILRB1/ILT2 [30]): no binding | binding result (LILRA6/ILT8 [31]): no binding | binding result (LILRB2/ILT4 [32]): no binding | EC50 (human ILT7-his protein [9]): 0.0751 nM | EC50 [10]: 0.312 nM | EC50 [11]: 0.939 nM
B3: chimeric antibody Ab12 (cmAb12) (antibody, human IgG1, V domains shown)
VH: QIQLVQSGPELKKPGETVKISCKASGYTFTEYPMHWVKQAPGKGFKWMGMIYTDTGEPAYAEEFKGRFAFSLETSASTAYLQINNLKNEDTATYFCVRELGQNFDYWGQGTTLTVSS
VL: DIVLTQSPASLAVSLGQRATISCRASQSVSTSSYSYMHWYQQKPGQPPKLLIKYASNLESGVPARFSGSGSGTDFTLNIHPVEEEDTATYYCQHSWDIPYTFGGGTKLEIK
notes: also called chimeric Ab12
